Measured values reported in patent US20220056119A1 (Regeneron, published 2022).

T1: Activin B (homodimer of two inhibin betaB subunits) (human, UniProt P09529 293-407)
T1 construct: Bought (R&D Systems #659-AB-025/CF)
T1 chain: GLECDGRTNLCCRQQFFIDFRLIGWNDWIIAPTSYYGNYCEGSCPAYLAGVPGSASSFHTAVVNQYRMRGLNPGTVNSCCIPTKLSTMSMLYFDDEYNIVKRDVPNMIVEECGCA

T2: Activin A (human, UniProt P08476 311-426)
T2 construct: Homodimer of two betaA subunits; bought (R&D Systems #338-AC); also called inhibin-betaA dimer
T2 sequence: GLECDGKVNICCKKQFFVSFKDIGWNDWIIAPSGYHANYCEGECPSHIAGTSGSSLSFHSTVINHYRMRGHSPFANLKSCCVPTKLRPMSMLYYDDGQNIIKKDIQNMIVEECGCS

T3: Activin AC (human, UniProt P55103 237-352)
T3 sequence 1: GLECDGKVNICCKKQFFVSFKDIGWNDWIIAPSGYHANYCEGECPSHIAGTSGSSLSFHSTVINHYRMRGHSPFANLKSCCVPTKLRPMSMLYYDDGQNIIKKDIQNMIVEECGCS
T3 sequence 2: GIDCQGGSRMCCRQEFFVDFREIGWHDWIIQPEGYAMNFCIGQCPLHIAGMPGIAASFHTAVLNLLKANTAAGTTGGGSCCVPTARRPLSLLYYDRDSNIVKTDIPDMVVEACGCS

T4: Activin AB (human, UniProt P08476 311-426; P09529 293-407)
T4 chain 1: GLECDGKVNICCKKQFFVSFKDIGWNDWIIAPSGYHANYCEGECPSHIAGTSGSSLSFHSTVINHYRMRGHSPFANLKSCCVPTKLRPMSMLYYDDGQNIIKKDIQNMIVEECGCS
T4 chain 2: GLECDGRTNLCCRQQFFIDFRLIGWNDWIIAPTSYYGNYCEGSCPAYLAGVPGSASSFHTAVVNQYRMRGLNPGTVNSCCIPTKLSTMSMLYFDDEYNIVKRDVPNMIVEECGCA

T5: Activin B (human, UniProt P09529 293-407)
T5 chain: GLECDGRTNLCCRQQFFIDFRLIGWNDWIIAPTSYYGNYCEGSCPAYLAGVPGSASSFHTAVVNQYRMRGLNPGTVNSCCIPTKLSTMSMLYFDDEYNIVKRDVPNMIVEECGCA


Assays:
[1] = biological target: T1, Activin B (homodimer of two inhibin …); test: SPR (Biacore), mAb captured by anti-Fc, Activin B injected, 25 C
Protocol: Antibody-antigen association was monitored for 240 seconds while dissociation in buffer was monitored for 600 seconds. Kinetic association and dissociation rate constants were determined by processing and fitting the data using Scrubber software version 2.0c. Binding equilibrium dissociation constants (KD) and dissociative half-lives (t_{1/2}) were then calculated from the kinetic rate constants as: KD (M)=kd/kₐ and t_{1/2} (min)=[ln 2/(60*kd)]. (NB=no binding observed under the conditions used; NT=not tested).

Activin A [2] = biological target: T2, Activin A; test: SPR, 5 nM Activin A + 7.50 nM binder over hActRIIA-hFc surface
Protocol: (§1) The binding signal (RU) was measured at 150 seconds after the start of the injection, and this signal was subtracted by the measured RU value for a negative control reference surface to determine the specific binding signal.

Activin A [3] = biological target: T2, Activin A; test: SPR, 5 nM Activin A + 1.88 nM binder over hActRIIA-hFc surface
Protocol: as §1

Activin A [4] = biological target: T2, Activin A; test: SPR, 5 nM Activin A + 15 nM binder over Follistatin-288 surface
Protocol: as §1

Activin AC = biological target: T3, Activin AC; test: cell-based or functional assay
Activin AB = biological target: T4, Activin AB; test: cell-based or functional assay
Activin A [5] = biological target: T2, Activin A; test: cell-based or functional assay
Activin B = biological target: T5, Activin B; test: cell-based or functional assay
Activin A [6] = biological target: T2, Activin A; test: SPR, 5 nM Activin A + 30 nM binder over Follistatin-288 surface
Protocol: as §1

Activin A [7] = biological target: T2, Activin A; test: SPR, 5 nM Activin A + 60 nM binder over hActRIIA-hFc surface
Protocol: as §1

Activin A [8] = biological target: T2, Activin A; test: SPR, 5 nM Activin A + 7.5 nM binder over Follistatin-288 surface
Protocol: as §1

Activin A [9] = biological target: T2, Activin A; test: SPR, 5 nM Activin A + 0 nM binder (no inhibitor) over Follistatin-288 surface
Protocol: as §1

Activin A [10] = biological target: T2, Activin A; test: SPR, 5 nM Activin A + 3.75 nM binder over Follistatin-288 surface
Protocol: as §1

Activin A [11] = biological target: T2, Activin A; test: SPR, 5 nM Activin A + 15 nM binder over hActRIIA-hFc surface
Protocol: as §1

Activin A [12] = biological target: T2, Activin A; test: SPR, 5 nM Activin A + 0.00 nM binder (no inhibitor) over hActRIIA-hFc surface
Protocol: as §1

Activin A [13] = biological target: T2, Activin A; test: SPR, 5 nM Activin A + 3.75 nM binder over hActRIIA-hFc surface
Protocol: as §1

Activin A [14] = biological target: T2, Activin A; test: SPR, 5 nM Activin A + 1.88 nM binder over Follistatin-288 surface
Protocol: as §1

Activin A [15] = biological target: T2, Activin A; test: SPR, 5 nM Activin A + 60 nM binder over Follistatin-288 surface
Protocol: as §1

Activin A [16] = biological target: T2, Activin A; test: SPR, 5 nM Activin A + 0.94 nM binder over Follistatin-288 surface
Protocol: as §1

Activin A [17] = biological target: T2, Activin A; test: SPR, 5 nM Activin A + 0.94 nM binder over hActRIIA-hFc surface
Protocol: as §1

Activin A [18] = biological target: T2, Activin A; test: SPR, 5 nM Activin A + 30 nM binder over hActRIIA-hFc surface
Protocol: as §1

| % bound RU w/ no inhibitor (Activin A [2]) | % bound RU w/ no inhibitor (Activin A [3]) | % bound RU w/ no inhibitor (Activin A [4]) | IC50, inhibition of 4 nM Activin AC in A204/CAGAx12-Luc luciferase bioassay (Activin AC) | IC50, inhibition of 30 pM Activin AB in A204/CAGAx12-Luc luciferase bioassay (Activin AB) | IC50, inhibition of 100 pM Activin A in A204/CAGAx12-Luc luciferase bioassay (Activin A [5]) | IC50, inhibition of 50 pM Activin B in A204/CAGAx12-Luc luciferase bioassay (Activin B) | % bound RU w/ no inhibitor (Activin A [6]) | % bound RU w/ no inhibitor (Activin A [7]) | % bound RU w/ no inhibitor (Activin A [8]) | % bound RU w/ no inhibitor (Activin A [9]) | % bound RU w/ no inhibitor (Activin A [10]) | % bound RU w/ no inhibitor (Activin A [11]) | % bound RU w/ no inhibitor (Activin A [12]) | % bound RU w/ no inhibitor (Activin A [13]) | % bound RU w/ no inhibitor (Activin A [14]) | % bound RU w/ no inhibitor (Activin A [15]) | % bound RU w/ no inhibitor (Activin A [16]) | % bound RU w/ no inhibitor (Activin A [17]) | % bound RU w/ no inhibitor (Activin A [18]) | Binder | other results |
| --- | --- | --- | --- | --- | --- | --- | --- | --- | --- | --- | --- | --- | --- | --- | --- | --- | --- | --- | --- | --- | --- |
|  |  |  |  |  |  |  |  |  |  |  |  |  |  |  |  |  |  |  |  | H4H10423P (antibody, human IgG4, V domains shown) VH: QVQLQQSGPGLLKPSQTLSLTCAISGDSVSSNSAAWSWIRQSPSRGLEWLGRTYYRANWFNDYALSVKSRITINPVTSTNHFSLQLHSVTPEDTAVYYCAREGALGYYFDSWGQGTLVTVSS VL: not shown | 50 nM Ag Bound (RU) [1]: 4.7 RU |
| 2% | 55% | 1% | 1.3 nM | 1.4e-10 M | 2e-10 M | 1.3e-10 M | 2% | 2% | 1% | 100% | 16% | 2% | 100% | 16% | 61% | 2% | 78% | 75% | 2% | H4H10436P2 (antibody, human IgG4, V domains shown) VH: QVQLVESGGGVVQPGRSLRLTCVASGFTVSSYGMHWVRQAPGKGLEWVAVMFYDESKKYYADSVKGRFTISRDNSKNTLYLQMNSLRVEDTAVYYCARDEQLDFEYWGQGTLVTVSS VL: not shown |  |
| 6% | 52% | 2% | 0.75 nM | 4.3e-10 M | 2.8e-10 M | 5.2e-09 M | 1% | 3% | 4% | 100% | 17% | 4% | 100% | 17% | 57% | 0% | 76% | 75% | 3% | H4H10440P2 (antibody, human IgG4, V domains shown) VH: EVQLVESGGGVVQPGGSLRLSCAASTFTFDDFAMHWVRQAPGKGLEWVSLITGDGGSTYYADPVKGRFTISRDNSKNSLYLQMNSLRTEDTALYYCVKDWWIAARPDYYYYGMDVWGQGTTVTVSS VL: not shown |  |
| 1% | 66% | 1% | 0.58 nM | 2.9e-10 M | 1.6e-10 M | 7.9e-08 M | 2% | 1% | 1% | 100% | 20% | 1% | 100% | 19% | 80% | 3% | 97% | 87% | 1% | H4H10429P (antibody, human IgG4, V domains shown) VH: QVQLVESGGGVVQPGRSLRLSCVASGFTVSSYGIHWVRQAPGKGLEWVSVIWYDGRNKDYADSVKGRFTISRDNSKNTVYLEMKGLRAEDTALYYCARDKTGDFDSWGQGTLVTVSS VL: DIQMTQSPSSLSASVGDRVTITCRASQNINSFLSWYQQKPGKAPKFLIYDASSIQSGAPSRFSGSGSGTDFTLTISSLQPEDFATYYCQQSYSSPFTFGQGTKLEIK |  |
